Two molecules from US8697369B2, “Method for screening a test substance for activating a receptor associated with FGF 21 activity” (National Institute of Advanced Industrial Science and …, priority 2007, dated 2014) can be followed below.

In test [1] the target is T1, humanized FGFR1c/humanized betaKlotho (hβKlotho)-expressing cells (Homo sapiens, UniProt P11362+Q86Z14).
T1 construct: expressed in transfected cells; host or cells: BaF3 (mouse pro-B) cells; pSRalpha (FGFR1c), pcDNA3.1 (betaKlotho)
T1 sequence (P11362 22-822): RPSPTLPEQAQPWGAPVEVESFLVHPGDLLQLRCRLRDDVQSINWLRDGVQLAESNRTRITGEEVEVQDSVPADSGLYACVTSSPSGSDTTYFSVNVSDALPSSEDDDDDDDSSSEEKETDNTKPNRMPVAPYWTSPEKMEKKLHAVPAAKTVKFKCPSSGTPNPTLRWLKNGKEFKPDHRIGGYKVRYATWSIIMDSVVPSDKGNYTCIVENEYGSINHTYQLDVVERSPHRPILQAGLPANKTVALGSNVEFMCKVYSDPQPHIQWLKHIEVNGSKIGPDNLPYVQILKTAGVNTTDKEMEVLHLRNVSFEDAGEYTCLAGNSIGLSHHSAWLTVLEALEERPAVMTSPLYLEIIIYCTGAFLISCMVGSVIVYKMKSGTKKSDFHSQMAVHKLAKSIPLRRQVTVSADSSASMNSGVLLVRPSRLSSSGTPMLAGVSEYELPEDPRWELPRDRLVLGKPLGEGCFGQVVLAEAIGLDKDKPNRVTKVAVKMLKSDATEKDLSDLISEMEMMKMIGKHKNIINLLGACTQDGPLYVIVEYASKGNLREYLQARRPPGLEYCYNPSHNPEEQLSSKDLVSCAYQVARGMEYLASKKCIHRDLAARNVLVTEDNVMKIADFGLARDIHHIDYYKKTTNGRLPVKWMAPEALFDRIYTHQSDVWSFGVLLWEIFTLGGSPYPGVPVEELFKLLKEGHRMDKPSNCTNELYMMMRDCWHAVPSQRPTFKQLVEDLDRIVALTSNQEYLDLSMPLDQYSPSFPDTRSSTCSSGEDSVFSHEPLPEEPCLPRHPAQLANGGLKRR
T1 sequence (Q86Z14 whole entry): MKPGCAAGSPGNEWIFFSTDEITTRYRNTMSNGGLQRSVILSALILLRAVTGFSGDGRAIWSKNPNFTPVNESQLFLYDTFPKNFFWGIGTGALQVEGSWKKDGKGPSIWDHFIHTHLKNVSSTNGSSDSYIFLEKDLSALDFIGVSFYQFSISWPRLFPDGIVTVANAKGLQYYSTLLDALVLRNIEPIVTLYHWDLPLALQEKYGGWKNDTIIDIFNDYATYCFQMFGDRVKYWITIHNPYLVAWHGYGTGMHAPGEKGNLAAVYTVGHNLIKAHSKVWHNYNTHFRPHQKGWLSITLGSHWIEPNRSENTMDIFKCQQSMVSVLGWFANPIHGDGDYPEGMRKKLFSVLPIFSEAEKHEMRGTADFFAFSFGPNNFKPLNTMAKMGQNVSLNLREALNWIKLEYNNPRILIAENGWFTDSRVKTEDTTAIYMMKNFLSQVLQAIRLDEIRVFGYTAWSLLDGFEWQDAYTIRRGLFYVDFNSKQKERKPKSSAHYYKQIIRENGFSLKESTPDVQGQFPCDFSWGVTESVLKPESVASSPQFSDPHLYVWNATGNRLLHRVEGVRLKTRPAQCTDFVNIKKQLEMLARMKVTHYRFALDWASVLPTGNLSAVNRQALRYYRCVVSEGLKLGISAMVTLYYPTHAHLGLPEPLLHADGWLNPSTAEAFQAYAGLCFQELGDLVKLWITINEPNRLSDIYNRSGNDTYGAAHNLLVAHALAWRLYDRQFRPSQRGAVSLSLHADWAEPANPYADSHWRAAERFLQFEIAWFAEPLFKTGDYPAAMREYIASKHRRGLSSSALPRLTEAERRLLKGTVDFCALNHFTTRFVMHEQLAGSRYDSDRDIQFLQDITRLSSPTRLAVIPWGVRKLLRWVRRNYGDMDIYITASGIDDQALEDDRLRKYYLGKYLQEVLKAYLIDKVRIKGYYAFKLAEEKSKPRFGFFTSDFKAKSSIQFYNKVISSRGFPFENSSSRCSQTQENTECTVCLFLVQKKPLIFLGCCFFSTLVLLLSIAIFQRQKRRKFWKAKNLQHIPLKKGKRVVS
The test is described as follows: DNA synthesis in humanized FGFR1c/humanized betaKlotho-expressing BaF3 cells. The class given is cell-based. Particulars: humanized FGFR1c and humanized betaKlotho; 10 μg/ml heparin. An excerpt: In Examples 4, 5, 6, and 7, it was shown that FGF21 reacts with FGFR1c in the presence of betaKlotho. FGFR1c, betaKlotho, FGF21, and the like, which were used in an actual experimental system, were all derived from mice used as typical mammalian models. With regard to these molecules, the homology between a human and a mouse at the amino acid sequence level is extremely high (80% in FGF21, 78% in betaKlotho, and 98% in FGFR1). As a result, naturally, there are no problems regarding the compatibility of the human with the mouse, and thus it is clear that the same results as those from a murine molecule will be obtained even using a humanized molecule. In the present example, as a precautionary measure, an experimental system using a humanized molecule was constructed to confirm such respect, and an experiment was carried out. Specifically, the humanized cDNA of FGFR1c and that of betaKlotho were prepared from a commercially available human RNA sample (Takara Bio Inc.) by PCR. FGFR1c was introduced into an expression vector having an SRalpha promoter (pSRalpha), and betaKlotho was introduced into an expression vector having a CMV promoter (pcDNA3.1; Invitrogen). […] In the presence of heparin, humanized FGF21 was added in various types of concentrations to FGFR1c-expressing cells or FGFR1c/betaKlotho-co-expressing cells, and the amount of DNA synthesized was then measured.

In the next test the target is T2, betaKlotho (Mus musculus, UniProt Q99N32).
T2 construct: a V5 tag and a His tag were added to the C-terminus of the extracellular domain of betaKlotho; made in house
T2 sequence (Q99N32 1-992): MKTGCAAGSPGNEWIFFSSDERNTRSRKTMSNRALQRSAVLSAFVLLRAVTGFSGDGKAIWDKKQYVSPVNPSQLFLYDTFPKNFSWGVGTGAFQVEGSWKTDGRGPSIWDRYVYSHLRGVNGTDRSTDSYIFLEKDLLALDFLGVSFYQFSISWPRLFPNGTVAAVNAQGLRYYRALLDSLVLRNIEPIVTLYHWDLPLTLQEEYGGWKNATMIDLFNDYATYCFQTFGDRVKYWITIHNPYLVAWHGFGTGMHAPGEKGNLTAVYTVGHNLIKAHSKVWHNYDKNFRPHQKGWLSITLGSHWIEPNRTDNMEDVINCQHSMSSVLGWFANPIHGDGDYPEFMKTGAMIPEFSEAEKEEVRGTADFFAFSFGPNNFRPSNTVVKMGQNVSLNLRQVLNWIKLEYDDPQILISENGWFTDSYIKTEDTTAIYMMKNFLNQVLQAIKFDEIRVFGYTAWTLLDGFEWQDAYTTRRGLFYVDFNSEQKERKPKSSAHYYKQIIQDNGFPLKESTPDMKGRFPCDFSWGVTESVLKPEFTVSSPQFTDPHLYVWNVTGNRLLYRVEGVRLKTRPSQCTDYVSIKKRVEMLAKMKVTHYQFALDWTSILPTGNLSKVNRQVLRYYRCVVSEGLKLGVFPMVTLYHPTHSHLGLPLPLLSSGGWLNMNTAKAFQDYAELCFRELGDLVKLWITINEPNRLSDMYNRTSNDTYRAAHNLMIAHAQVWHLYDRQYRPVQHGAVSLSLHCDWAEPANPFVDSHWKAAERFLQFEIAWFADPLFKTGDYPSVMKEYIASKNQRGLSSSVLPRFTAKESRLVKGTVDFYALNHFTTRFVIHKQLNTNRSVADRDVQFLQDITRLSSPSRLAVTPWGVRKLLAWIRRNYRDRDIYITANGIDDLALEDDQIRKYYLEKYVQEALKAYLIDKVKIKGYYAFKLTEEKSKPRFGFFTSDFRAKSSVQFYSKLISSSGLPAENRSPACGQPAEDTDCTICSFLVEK
The test is described as follows: Co-precipitation of FGF21 with soluble betaKlotho protein (anti-V5 beads, immunoblotting). The class given is binding. As to conditions: presence or absence of heparin. How it is done: In the present example, the formation of a complex between betaKlotho and an FGF receptor or FGF21 was examined in a biochemical manner. Specifically, a V5 tag and a His tag were added to the C-terminus of the extracellular domain of betaKlotho in a tandem manner to prepare a soluble protein. Thereafter, the soluble betaKlotho protein was incubated with FGF21 in a test tube in the presence or absence of heparin, and betaKlotho was then precipitated using anti-V5 tag antibody-immobilized beads. Whether or not FGF21 bound to betaKlotho and was co-precipitated therewith was analyzed by an immunoblotting method.
For orientation: In western blotting, separated proteins are transferred to a membrane and probed.

For test [2], the system named is 3T3-L1 fibroblasts forced to express betaKlotho. The experiment in a line: Phosphorylation of FRS2 and MAPK in undifferentiated 3T3-L1 cells forced to express betaKlotho. The test is classed as cell-based. Particulars: betaKlotho expression vector; FGF21 1.1 μg/ml and 4.5 μg/ml; 10 minutes. The procedure: (§1) A betaKlotho expression vector produced by the method described in Example 4 and an empty vector used as a control, into which betaKlotho cDNA had not been inserted, were introduced into 3T3-L1 fibroblasts cultured as described in Example 1 by a lipofection method, thereby obtaining Puromycin-resistant clones. These different types of cells were stimulated with FGF21, and 10 minutes after the stimulation, a cell lysate was prepared. The activation of FRS2 and MAPK that were signaling molecules located downstream of FGFR was examined by a Western blotting method.

The test system of test [3] is undifferentiated 3T3-L1 cells that had not expressed betaKlotho. The experiment in a line: Phosphorylation of FRS2 and MAPK in undifferentiated 3T3-L1 cells not expressing betaKlotho. The test is classed as cell-based. Particulars: 10 minutes. The procedure:
as §1

In test [4] the test system is control 3T3-L1 fibroblasts. The test is described as follows: GLUT1 mRNA level in control 3T3-L1 fibroblasts (empty vector). As to conditions: various concentrations, 6 hours. The test is classed as cell-based. How it is done:
A betaKlotho expression vector or an empty vector used as a control, into which betaKlotho cDNA had not been inserted, were introduced into 3T3-L1 fibroblasts, and FGF21 was then added in various types of concentrations to a culture solution of the 3T3-L1 fibroblasts. The obtained mixture was cultured for 6 hours. Thereafter, RNA was extracted, and the mRNA level of GLUT1 was then measured.

With “FGF1: conventional FGF used as a control”, in test [1], the “amount of DNA synthesized (thymidine incorporation)” value is listed as “promoted the DNA synthesis”.

B1: FGF21: fibroblast growth factor 21; mouse-derived protein used in Examples 1-7 and 10-13 (protein)
chain: AYPIPDSSPLLQFGGQVRQRYLYTDDDQDTEAHLEIREDGTVVGAAHRSPESLLELKALKPGVIQILGVKASRFLCQQPDGALYGSPHFDPEACSFRELLLEDGYNVYQSEAHGLPLRLPQKDSPNQDATSWGPVRFLPMPGLLHEPQDQAGFLPPEPPDVGSSDPLSMVEPLQGRSPSYAS
For the molecule B1, the “co-precipitation (binding) with soluble betaKlotho protein” value with betaKlotho is listed as “precipitated in the presence of betaKlotho”. Also, the “phosphorylation levels of FRS2 and MAPK” value in test [2] is listed as “increased”. Also, the “phosphorylated state of FRS2 and MAPK” value in test [3] was “do not change”. Moreover, the “mRNA level of GLUT1” value in test [4] is given as “not observed”.
